Results: patent US20140255415A1 (Novartis, published 2014)

What was measured:
[1] = target: T1, human LINGO-2 expressed on CHO-K1 cells (CHO-K1-hLINGO-2) (human, UniProt Q7L985 26-606); assay: apparent KD, FACS saturation binding on CHO-K1-hLINGO-2 cells, IgG4 format
T1 construct: range 26-606; not shown: 2 amino acid residue linker
T1 sequence (looked up): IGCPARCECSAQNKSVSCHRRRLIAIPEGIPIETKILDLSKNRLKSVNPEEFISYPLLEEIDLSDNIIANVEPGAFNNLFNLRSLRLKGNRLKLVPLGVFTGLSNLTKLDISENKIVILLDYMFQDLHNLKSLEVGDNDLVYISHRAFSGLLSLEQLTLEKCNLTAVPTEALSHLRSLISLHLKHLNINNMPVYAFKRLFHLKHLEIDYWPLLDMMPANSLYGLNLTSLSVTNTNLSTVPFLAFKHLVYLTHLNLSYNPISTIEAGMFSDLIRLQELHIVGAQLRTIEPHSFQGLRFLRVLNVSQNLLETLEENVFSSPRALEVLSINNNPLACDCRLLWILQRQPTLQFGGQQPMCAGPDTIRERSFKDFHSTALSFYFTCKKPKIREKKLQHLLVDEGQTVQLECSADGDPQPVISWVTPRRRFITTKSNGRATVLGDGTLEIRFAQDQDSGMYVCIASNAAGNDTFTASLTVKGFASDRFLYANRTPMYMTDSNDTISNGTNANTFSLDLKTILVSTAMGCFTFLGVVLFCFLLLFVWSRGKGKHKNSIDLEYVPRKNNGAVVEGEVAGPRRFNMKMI

[2] = target: human LINGO-1 expressed on CHO-K1 cells (CHO-K1-hLINGO-1) (human) (UniProt Q96FE5); assay: ratio of apparent KDs, FACS saturation binding on CHO-K1-hLINGO-1 cells, IgG4, without against with 50% human CSF
[3] = target: human LINGO-1 expressed on CHO-K1 cells (CHO-K1-hLINGO-1) (human) (UniProt Q96FE5); assay: apparent KD, FACS saturation binding on CHO-K1-hLINGO-1 cells, IgG4 pre-incubated in FACS buffer + 50% human serum
[4] = target: human LINGO-1 expressed on CHO-K1 cells (CHO-K1-hLINGO-1) (human) (UniProt Q96FE5); assay: apparent KD, FACS saturation binding on CHO-K1-hLINGO-1 cells, IgG4 pre-incubated in FACS buffer + 2.6% BSA
[5] = target: T2, cynomolgus monkey LINGO-1 expressed on CHO-K1 cells (CHO-K1-cmLINGO-1) (cynomolgus monkey, UniProt Q9N008 34-614); assay: apparent KD, FACS saturation binding on CHO-K1-cmLINGO-1 cells, IgG4 format
T2 construct: range 34-614; also called Cynomolgus LINGO-1; not shown: 2 amino acid residue linker
T2 sequence (looked up): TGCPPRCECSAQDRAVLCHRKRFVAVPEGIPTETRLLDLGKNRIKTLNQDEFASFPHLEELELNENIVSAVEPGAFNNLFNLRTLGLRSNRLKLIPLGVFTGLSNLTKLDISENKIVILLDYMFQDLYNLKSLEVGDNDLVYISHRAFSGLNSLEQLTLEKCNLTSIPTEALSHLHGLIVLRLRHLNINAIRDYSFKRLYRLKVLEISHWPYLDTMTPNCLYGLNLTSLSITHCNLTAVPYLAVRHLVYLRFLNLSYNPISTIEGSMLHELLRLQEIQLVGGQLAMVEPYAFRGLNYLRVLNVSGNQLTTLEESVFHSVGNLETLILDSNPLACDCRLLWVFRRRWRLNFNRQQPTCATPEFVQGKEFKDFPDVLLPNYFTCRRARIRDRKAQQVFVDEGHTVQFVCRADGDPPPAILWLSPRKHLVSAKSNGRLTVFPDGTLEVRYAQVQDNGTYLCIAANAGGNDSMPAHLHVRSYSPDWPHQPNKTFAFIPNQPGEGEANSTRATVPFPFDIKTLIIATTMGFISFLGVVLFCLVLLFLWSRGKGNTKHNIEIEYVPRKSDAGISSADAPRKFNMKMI
Procedure: (§1) Cell based affinity of anti-LINGO-1 specific antibodies is determined by FACS saturation binding experiments. The determination of the apparent KD values is carried out identical to the procedure described above using anti-LINGO-1 Fab antibodies.
(§2) In detail, CHO-K1-hLINGO-1, CHO-K1-cmLINGO-1 or CHO-K1-rLINGO-1 are detached from culture flasks by versene, washed with FACS buffer and resuspended in FACS buffer. Purified anti-LINGO-1 IgG4s are serially diluted in FACS buffer and spread into round bottom 96-well microtiter plates (NUNC™, Wiesbaden, Germany). For each concentration, duplicate wells are incubated with 1.25×10⁴ cells for 30-60 min on ice in a total volume of 100 μl. […] Using this assay the following apparent KD values can be determined (Table 3).

[6] = target: human LINGO-1 expressed on CHO-K1 cells (CHO-K1-hLINGO-1) (human) (UniProt Q96FE5); assay: apparent KD, FACS saturation binding on CHO-K1-hLINGO-1 cells, IgG4, without 50% human cerebro-spinal fluid (control)
[7] = target: human LINGO-1 expressed on CHO-K1 cells (CHO-K1-hLINGO-1) (human) (UniProt Q96FE5); assay: apparent KD, FACS saturation binding on CHO-K1-hLINGO-1 cells, IgG4 format
[8] = target: human LINGO-1 expressed on CHO-K1 cells (CHO-K1-hLINGO-1) (human) (UniProt Q96FE5); assay: apparent KD, FACS saturation binding on CHO-K1-hLINGO-1 cells, IgG4, with 50% human cerebro-spinal fluid
[9] = target: human LINGO-1 expressed on CHO-K1 cells (CHO-K1-hLINGO-1) (human) (UniProt Q96FE5); assay: apparent KD, FACS saturation binding on CHO-K1-hLINGO-1 cells, IgG4 pre-incubated in FACS buffer
[10] = target: T3, rat LINGO-1 expressed on CHO-K1 cells (CHO-K1-rLINGO-1) (rat, UniProt A0A8I5ZPI2 34-614); assay: apparent KD, FACS saturation binding on CHO-K1-rLINGO-1 cells, IgG4 format
T3 construct: range 34-614; not shown: 2 amino acid residue linker
T3 sequence: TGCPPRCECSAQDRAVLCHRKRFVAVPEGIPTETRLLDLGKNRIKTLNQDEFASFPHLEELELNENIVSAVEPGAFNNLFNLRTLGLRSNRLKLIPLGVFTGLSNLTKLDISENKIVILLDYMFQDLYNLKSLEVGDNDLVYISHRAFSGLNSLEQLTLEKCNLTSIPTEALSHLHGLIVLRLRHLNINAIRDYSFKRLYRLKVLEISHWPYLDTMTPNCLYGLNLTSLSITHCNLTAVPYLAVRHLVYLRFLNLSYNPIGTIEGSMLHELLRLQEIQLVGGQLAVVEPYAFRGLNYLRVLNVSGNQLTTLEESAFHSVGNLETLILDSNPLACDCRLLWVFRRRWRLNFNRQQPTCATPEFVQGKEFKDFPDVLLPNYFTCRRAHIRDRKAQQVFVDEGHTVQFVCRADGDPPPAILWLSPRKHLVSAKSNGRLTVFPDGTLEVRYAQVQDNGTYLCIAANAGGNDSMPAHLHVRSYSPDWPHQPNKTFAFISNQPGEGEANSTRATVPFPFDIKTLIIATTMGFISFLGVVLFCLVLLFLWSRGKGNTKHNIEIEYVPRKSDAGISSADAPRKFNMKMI
Procedure: as §1, §2

B1: anti-LINGO-1 IgG4 antibody 4785 (antibody, V domains shown)
VH: QVQLQQSGPGLVKPSQTLSLTCAISGDSVSDNSAAWSWIRQSPGRGLEWLGLIYLRSKWDNDYAVSVKSRITINPDTSKNQFSLQLNSVTPEDTAVYYCARTGRADEFDVWGQGTLVTVSS
VL: DIVLTQPPSVSGAPGQRVTISCSGSSSNIGNNYVSWYQQLPGTAPKLLISRNSKRPSGVPDRFSGSKSGTSASLAITGLQSEDEADYYCSTYDTFSIVFGGGTKLTVLG
B1 showed a Kd [1] of 0.95 nM, an App. KD ratio w/o CSF:w/ CSF [2] of 0.76 and a Kd [3] of 0.06 nM. It also gave a Kd [4] of 0.05 nM, a Kd [5] of 0.18 nM and a Kd [6] of 0.19 nM. For the same binder, the Kd [7] was 0.07 nM, the Kd [8] was 0.25 nM and the Kd [9] was 0.08 nM. The Kd [10] was 0.07 nM.
